Test results taken from US20200017549A1, “NOVEL a4B7 PEPTIDE ANTAGONISTS” (Protagonist Therapeutics, Inc., priority 2013, published 2020).
Bridge positions count the residues as written; N and C are the ends. Square brackets hold non-standard residues; d marks the D form. Ends that are not written are not given here. NMeR = CN[C@@H](CCCNC(=N)N)C(=O)O

Target: T1, recombinant human integrin α4β7 (Homo sapiens, UniProt P13612+P26010)
T1 construct: purchased R&D Systems 5397-A30
T1 sequence (P13612 34-970 limits assumed): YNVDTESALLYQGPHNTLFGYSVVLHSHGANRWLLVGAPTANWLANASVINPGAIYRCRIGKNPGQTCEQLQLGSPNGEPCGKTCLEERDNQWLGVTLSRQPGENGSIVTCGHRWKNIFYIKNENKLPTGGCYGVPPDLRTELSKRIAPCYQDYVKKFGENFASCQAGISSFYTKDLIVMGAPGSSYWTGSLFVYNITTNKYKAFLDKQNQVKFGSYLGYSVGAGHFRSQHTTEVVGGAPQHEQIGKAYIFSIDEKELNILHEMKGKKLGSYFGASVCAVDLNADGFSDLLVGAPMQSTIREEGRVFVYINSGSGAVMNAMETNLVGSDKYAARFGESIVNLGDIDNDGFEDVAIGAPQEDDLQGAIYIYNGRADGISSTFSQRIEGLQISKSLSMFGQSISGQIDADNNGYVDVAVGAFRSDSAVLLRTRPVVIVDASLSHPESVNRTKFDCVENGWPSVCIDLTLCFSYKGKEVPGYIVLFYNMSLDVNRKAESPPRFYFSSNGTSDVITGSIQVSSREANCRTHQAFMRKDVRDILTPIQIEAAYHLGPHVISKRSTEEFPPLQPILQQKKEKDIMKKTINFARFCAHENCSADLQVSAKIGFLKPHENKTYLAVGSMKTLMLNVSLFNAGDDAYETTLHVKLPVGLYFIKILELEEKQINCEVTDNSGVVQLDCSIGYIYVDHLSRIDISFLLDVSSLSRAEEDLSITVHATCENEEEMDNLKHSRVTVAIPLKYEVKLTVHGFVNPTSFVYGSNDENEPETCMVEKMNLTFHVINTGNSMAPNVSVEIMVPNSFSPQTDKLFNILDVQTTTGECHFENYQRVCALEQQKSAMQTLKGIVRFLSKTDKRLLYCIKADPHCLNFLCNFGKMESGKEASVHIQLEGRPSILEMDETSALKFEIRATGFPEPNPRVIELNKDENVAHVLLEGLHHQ
T1 sequence (P26010 20-723 limits assumed): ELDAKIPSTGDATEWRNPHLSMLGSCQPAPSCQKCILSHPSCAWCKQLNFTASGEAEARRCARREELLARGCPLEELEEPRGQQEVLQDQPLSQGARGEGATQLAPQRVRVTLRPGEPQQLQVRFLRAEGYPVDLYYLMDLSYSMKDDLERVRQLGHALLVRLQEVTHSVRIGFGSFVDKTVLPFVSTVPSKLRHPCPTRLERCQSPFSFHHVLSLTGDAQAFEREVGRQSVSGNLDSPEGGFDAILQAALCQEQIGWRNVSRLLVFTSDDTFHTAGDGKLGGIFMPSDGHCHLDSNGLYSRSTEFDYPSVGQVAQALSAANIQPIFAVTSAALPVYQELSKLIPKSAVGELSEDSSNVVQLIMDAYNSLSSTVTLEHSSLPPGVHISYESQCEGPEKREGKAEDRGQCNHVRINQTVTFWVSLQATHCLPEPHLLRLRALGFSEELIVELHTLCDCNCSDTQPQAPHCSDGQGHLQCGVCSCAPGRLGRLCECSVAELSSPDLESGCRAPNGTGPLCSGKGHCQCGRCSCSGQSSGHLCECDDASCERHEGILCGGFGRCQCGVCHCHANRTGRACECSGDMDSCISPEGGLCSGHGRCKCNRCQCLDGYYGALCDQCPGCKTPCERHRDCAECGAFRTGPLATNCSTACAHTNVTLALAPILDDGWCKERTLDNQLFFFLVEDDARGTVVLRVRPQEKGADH
Test: α4β7-MAdCAM Competition ELISA
Assay type: binding
Conditions: N-Me-Arg substituted, as compared to SEQ ID NO:39
Experimental: α4β7-MAdCAM Competition ELISA
A nickel coated plate (Pierce # 15442) was coated with recombinant human integrin α4β7 (R&D Systems #5397-A30) at 800 ng/well and incubated at room temperature with shaking for 1 hr. The solution was then remove by shaking and blocked with assay buffer (50 mM Tris-HCl pH7.6, 150 mM NaCl, 1 mM MnCl2, 0.05% Tween-20 and 0.5% BSA) at 250 ul/well. The plate was then incubated at room temperature for 1 hr. Each well was washed 3 times with wash buffer (50 mM Tris-HCl pH7.6, 100mM NaCl, 1 mM MnCl2, 0.05% Tween-20). To each well was added 25 ul of a serial dilution (3-fold dilutions in assay buffer) of peptides starting at 20 μM. 25 ul of recombinant human MAdCAM-1 (R&D Systems #6056-MC) was then added to each well at a fixed concentration 20 nM. The final starting peptide concentration was 10 μM, and the final MAdCAM-1 concentration was 10 nM. The plates were then incubated at room temperature for 1 hr to reach binding equilibrium. The wells were then washed three times with wash buffer. 50 ul of mouse anti-human IgG1-HRP (Invitrogen # A10648) diluted in 1:2000 in assay buffer was then added to each well. The wells were incubated at room temperature for 45 min with shaking. The wells were then washed 3 times with wash buffer. […] The reaction was stopped with 2N H2SO4 and absorbance was read at 450 nm.

SEQ ID NO: 48: integrin antagonist peptide substituted with N-Me-Arg (C[NMeR]SDTLCK; disulfide 1-7)
potency for α4β7 in ELISA: increased potency
